In US20240390512A1, “METHODS OF TREATING CHEMOTHERAPY-RESISTANT CANCER WITH AN ANTIBODY-DRUG CONJUGATE” (DAIICHI SANKYO COMPANY, LIMITED, priority 2021, published 2024):
Positions count from the first letter of the chain named. One block for each molecule: values may come before it.

How the values were obtained:
[1] = molecular target: T1, human CDH6 (full-length and EC domain deletion mutants) (Homo sapiens, UniProt P55285, DEL160-268); test: Epitope analysis of rat anti-CDH6 antibody by flow cytometry using domain deletion mutants; type: binding; details: flow cytometry; transfected 293α cells; antibody 20 nM
T1 construct: each one of the five EC domains could be deleted from full-length human CDH6; 3xFLAG (deletion mutants only, from the vector p3×FLAG-CMV-9); expressed in transfected cells; host or cells: 293α cells
T1 sequence (P55285 with tags, fused parts or gaps DEL160-268): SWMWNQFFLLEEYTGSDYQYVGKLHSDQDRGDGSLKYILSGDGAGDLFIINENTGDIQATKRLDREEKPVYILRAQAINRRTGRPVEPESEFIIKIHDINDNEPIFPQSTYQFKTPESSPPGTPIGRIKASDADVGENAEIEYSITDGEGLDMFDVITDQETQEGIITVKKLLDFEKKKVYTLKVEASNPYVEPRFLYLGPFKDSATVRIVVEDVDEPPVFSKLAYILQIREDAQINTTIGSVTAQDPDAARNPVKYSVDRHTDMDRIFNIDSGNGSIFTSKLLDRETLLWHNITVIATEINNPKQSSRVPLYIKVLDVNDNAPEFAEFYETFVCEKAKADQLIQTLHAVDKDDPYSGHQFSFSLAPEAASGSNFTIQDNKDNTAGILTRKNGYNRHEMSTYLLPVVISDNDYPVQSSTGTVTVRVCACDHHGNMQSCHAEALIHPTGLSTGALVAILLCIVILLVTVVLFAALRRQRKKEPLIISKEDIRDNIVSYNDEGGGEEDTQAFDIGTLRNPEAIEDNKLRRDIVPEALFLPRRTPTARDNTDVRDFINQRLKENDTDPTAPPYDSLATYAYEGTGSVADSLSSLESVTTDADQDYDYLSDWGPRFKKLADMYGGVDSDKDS
Text: (§1) The full-length extracellular region of human CDH6 has five extracellular domains, EC1 (SEQ ID NO: 2), EC2 (SEQ ID NO: 3), EC3 (SEQ ID NO: 4), EC4 (SEQ ID NO: 5), and EC5 (SEQ ID NO: 6). A gene to be expressed such that each one of the five EC domains could be deleted from full-length human CDH6 was synthesized by GeneArt, and incorporated into p3×FLAG-CMV-9 vectors for mammalian expression (Sigma-Aldrich Co. LLC) according to a method known to a person skilled in the art in order to produce an expression vector for each domain deletion mutant lacking any one of EC1 to EC5.
(§2) The epitopes to which the rat anti-human CDH6 antibodies bound were identified by flow cytometry analysis using a 293α cell line transfected with each EC domain deletion vector. Using Lipofectamine 2000 (Thermo Fisher Scientific Inc.), each domain deletion mutant expression vector produced in Reference Example 2)-2-1, or pcDNA3.1-hCDH6 for the expression of full-length human CDH6 was transiently introduced into a 293α cell line, which was a cell line derived from HEK293 cells by stable transfection with integrin αv and integrin […] expression vectors. The cells were cultured overnight under conditions of 37° C. and 5% CO2, and thereafter, a cell suspension was prepared. The suspension of the transfected 293α cells was centrifuged, and a supernatant was then removed. Thereafter, the cells were suspended by the addition of each of the 4 rat anti-CDH6 monoclonal antibodies (clone Nos: rG019, rG055, rG056 and rG061), which had been prepared in Reference Example 1)-7, or rat IgG control (R&D Systems, Inc.) (final concentration: 20 nM). The cells were left standing at 4° C. for 1 hour. The cells were washed twice with PBS supplemented with 5% FBS, and then suspended by the addition of Anti-Rat IgG (whole molecule)-FITC antibody produced in rabbit (Sigma-Aldrich Co. LLC) that had been 50-fold diluted with PBS supplemented with 5% FBS. The cells were left standing at 4° C. for 1 hour. The cells were washed twice with PBS supplemented with 5% FBS, followed by detection using a flow cytometer (Canto II; BD Biosciences). The data was analyzed using FlowJo (Tree Star, Inc.). In the histograms of FIGS. 2-1 to 2-6, the abscissa depicts FITC fluorescence intensity indicating the amount of the antibody bound, and the ordinate depicts cell count. […] Fluorescence intensity is enhanced when the antibody binds to full-length hCDH6 or each EC domain deletion mutant on the surface of cells. The rat IgG control binds to none of the transfected cells.

[2] = molecular target: T2, human CDH6 (full-length and EC domain deletion mutants) (Homo sapiens, UniProt P55285, DEL384-486); test: as above; type: binding; details: flow cytometry; transfected 293α cells; antibody 20 nM
T2 construct: each one of the five EC domains could be deleted from full-length human CDH6; 3xFLAG (deletion mutants only, from the vector p3×FLAG-CMV-9); expressed in transfected cells; host or cells: 293α cells
T2 sequence (P55285 with tags, fused parts or gaps DEL384-486): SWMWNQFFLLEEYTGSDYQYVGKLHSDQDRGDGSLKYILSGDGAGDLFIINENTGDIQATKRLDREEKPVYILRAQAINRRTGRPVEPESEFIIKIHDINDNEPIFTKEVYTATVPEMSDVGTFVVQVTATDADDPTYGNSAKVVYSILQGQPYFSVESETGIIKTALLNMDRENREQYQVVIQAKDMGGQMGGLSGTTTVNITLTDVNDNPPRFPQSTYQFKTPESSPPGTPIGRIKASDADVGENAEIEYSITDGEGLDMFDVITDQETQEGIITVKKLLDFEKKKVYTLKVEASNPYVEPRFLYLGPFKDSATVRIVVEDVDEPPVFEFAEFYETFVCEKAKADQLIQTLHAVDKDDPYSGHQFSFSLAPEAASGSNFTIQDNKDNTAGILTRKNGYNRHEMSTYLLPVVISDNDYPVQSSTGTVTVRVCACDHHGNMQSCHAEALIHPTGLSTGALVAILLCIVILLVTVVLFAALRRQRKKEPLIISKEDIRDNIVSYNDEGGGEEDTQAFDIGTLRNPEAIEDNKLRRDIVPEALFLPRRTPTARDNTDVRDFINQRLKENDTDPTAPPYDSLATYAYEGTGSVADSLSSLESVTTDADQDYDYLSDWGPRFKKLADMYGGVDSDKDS
Text: as §1, §2

binding to EC2 deletion mutant [1]: bind | binding to EC4 deletion mutant [2]: bind
B1: rG019: rat anti-human CDH6 monoclonal antibody produced by hybridoma rG019; variable regions SEQ ID NO: 10 and 15 (antibody, listed as Rattus norvegicus, V domains shown)
VL: DIQMTQSPSLLSASVGDRVTLNCKASQNIYKNLAWYQQKLGEGPKLLIYDANTLQTGIPSRFSGSGSGSDFTLTISSLQPEDVATYFCQQYYSGWAFGGVTNLELKRA
VH: QVQLQQSGAELVKPGSSVKISCKASGYTFTRNFMHWIKQQPGNGLEWIGWIYCGDGETEYNQKFNGKATLTADRSSSTAYMELSRLTSEDSAVYFCARGVYGGFAGGYFDFWGQGVMVTVSS

binding to EC2 deletion mutant [1]: bind | binding to EC4 deletion mutant [2]: bind
B2: rG055: rat anti-human CDH6 monoclonal antibody produced by hybridoma rG055; variable regions SEQ ID NO: 20 and 25 (antibody, listed as Rattus norvegicus, V domains shown)
VL: DVQMTHSPSYLAASPGESVSISCKTSKNISNYLVWYQQKPGEAYKLLIYSGSTLQSGTPSRFSGSGSGTDFTLTIRSLEPEDFGLYFCQQYYEKPFTFGSGTKLEIKRA
VH: EVQLQESGPGLVRPSQSLSLSCSVTDYSITSNYWGWIRRFPGNKMEWMGYITYSGYTSYNPSLQSRISITRDTSKNQFFLQLNSVTAEDTATYYCARSINHGGYSYVVDAWGPGASVTVSS

binding to EC2 deletion mutant [1]: bind | binding to EC4 deletion mutant [2]: bind
B3: rG061: rat anti-human CDH6 monoclonal antibody produced by hybridoma rG061; variable regions SEQ ID NO: 40 and 45 (antibody, listed as Rattus norvegicus, V domains shown)
VL: B2 VL with H6Q, T25A, S26T, N28S, V34A, L46V, F87S, F96L
VH: EVQLQESGPGLVKPSQSLSLTCSVTGYSITTYYWGWIRKFPGNKMEWMGYISYSGRTSYNPSLKSRMSITRDASKNQFFLQLNSVTTDDTATYYCARSPINHGGYWYFDFWGPGTMVTVSS

binding to EC2 deletion mutant [1]: bind | binding to EC4 deletion mutant [2]: bind
B4: rG056: rat anti-human CDH6 monoclonal antibody produced by hybridoma rG056; variable regions SEQ ID NO: 30 and 35 (antibody, listed as Rattus norvegicus, V domains shown)
VL: DVQMTQSPSSLAASPGESVSISCRATKSIGIYLAWYQQKPGKTFKLLIYSGSTLQSGTPSRFSGSGSGTDFTLTIRSLEPEDFGLYFCQQFYENPFTFGSGTKLEIRRA
VH: EVQLQESGPGLVKPSQSLSLTCSVTDYSITTYFWGWIRKFPGNKMEWMGYMSYRGGTSYNPSLKSRISITRDTSKNQFFLQLNSVTTEDTATYYCARCPNYGGHSLVFDYWGQGVMVTVSS
